Test results reported in patent US20240034815A1 (Xencor, published 2024).

Biological target: T1, His-tagged human GPC3 (human, UniProt P51654 25-559, limits assumed)
T1 construct: Captured on HIS1K sensors in the Octet assay; also called human GPC3 antigen; Glypican 3; not shown: His tag
Assay: binding assay not named for this figure; human GPC3 per legend paragraph 61

T1 sequence (P51654 25-559 limits assumed): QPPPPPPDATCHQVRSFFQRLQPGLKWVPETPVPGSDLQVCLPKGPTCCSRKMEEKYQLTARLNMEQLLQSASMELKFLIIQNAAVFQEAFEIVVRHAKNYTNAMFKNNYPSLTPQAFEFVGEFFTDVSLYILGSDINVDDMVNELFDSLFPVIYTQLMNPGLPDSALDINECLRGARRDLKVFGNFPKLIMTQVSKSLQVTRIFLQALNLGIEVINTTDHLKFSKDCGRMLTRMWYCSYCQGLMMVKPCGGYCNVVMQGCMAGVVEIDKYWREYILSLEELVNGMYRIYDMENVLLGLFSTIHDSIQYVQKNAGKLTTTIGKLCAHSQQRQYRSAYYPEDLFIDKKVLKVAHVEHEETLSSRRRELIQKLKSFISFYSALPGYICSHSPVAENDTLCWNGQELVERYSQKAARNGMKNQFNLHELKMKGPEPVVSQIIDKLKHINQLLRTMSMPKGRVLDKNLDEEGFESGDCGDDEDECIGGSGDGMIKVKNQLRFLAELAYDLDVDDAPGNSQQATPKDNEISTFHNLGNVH

Row | Binder | Kd
1 | XENP 23066 H1_L1.3 (antibody, human IgG1, kappa, V domains shown, VH WT, VL mutation (Kabat) N28S; also called [GPC3]H1_L1.3; VL N28S; copies: 2 + 2) VH: QVQLVQSGAEVKKPGASVKVSCKASGYTFTDYEMHWVRQAPGQGLEWMGALDPKTGDTAYSQKFQGRVTMTADKSISTAYMELSRLRSDDTAVYYCTRFYSYTYWGQGTLVTVSS VL: DVVMTQSPLSLPVTLGQPASISCRSSQSLVHSSGNTYLHWYQQRPGQSPRLLIYKVSNRFSGVPDRFSGSGSGTDFTLKISRVEAEDVGVYFCSQNTHVPPTFGSGTKLEIKR | 12.7 nM
2 | XENP 23067 H1_L1.4 (antibody, human IgG1, kappa, V domains shown, VH WT, VL mutation (Kabat) N28H; also called [GPC3]H1_L1.4; VL N28H) VH: QVQLVQSGAEVKKPGASVKVSCKASGYTFTDYEMHWVRQAPGQGLEWMGALDPKTGDTAYSQKFQGRVTMTADKSISTAYMELSRLRSDDTAVYYCTRFYSYTYWGQGTLVTVSS VL: DVVMTQSPLSLPVTLGQPASISCRSSQSLVHSHGNTYLHWYQQRPGQSPRLLIYKVSNRFSGVPDRFSGSGSGTDFTLKISRVEAEDVGVYFCSQNTHVPPTFGSGTKLEIKR | 11.7 nM
3 | XENP 23068 H1_L1.5 (antibody, human IgG1, kappa, V domains shown, VH WT, VL mutation (Kabat) G29A; also called [GPC3]H1_L1.5; VL G29A; copies: 2 + 2) VH: QVQLVQSGAEVKKPGASVKVSCKASGYTFTDYEMHWVRQAPGQGLEWMGALDPKTGDTAYSQKFQGRVTMTADKSISTAYMELSRLRSDDTAVYYCTRFYSYTYWGQGTLVTVSS VL: DVVMTQSPLSLPVTLGQPASISCRSSQSLVHSNANTYLHWYQQRPGQSPRLLIYKVSNRFSGVPDRFSGSGSGTDFTLKISRVEAEDVGVYFCSQNTHVPPTFGSGTKLEIKR | 2.09 nM
4 | XENP 23070 H1_L1.7 (antibody, human IgG1, kappa, V domains shown, VH WT, VL mutation (Kabat) G29K; also called [GPC3]H1_L1.7; VL G29K; copies: 2 + 2) VH: QVQLVQSGAEVKKPGASVKVSCKASGYTFTDYEMHWVRQAPGQGLEWMGALDPKTGDTAYSQKFQGRVTMTADKSISTAYMELSRLRSDDTAVYYCTRFYSYTYWGQGTLVTVSS VL: DVVMTQSPLSLPVTLGQPASISCRSSQSLVHSNKNTYLHWYQQRPGQSPRLLIYKVSNRFSGVPDRFSGSGSGTDFTLKISRVEAEDVGVYFCSQNTHVPPTFGSGTKLEIKR | 2.22 nM
5 | XENP 23071 H1_L1.8 (antibody, human IgG1, kappa, V domains shown, VH WT, VL mutation (Kabat) N30Q; also called [GPC3]H1_L1.8; VL N30Q; copies: 2 + 2) VH: QVQLVQSGAEVKKPGASVKVSCKASGYTFTDYEMHWVRQAPGQGLEWMGALDPKTGDTAYSQKFQGRVTMTADKSISTAYMELSRLRSDDTAVYYCTRFYSYTYWGQGTLVTVSS VL: DVVMTQSPLSLPVTLGQPASISCRSSQSLVHSNGQTYLHWYQQRPGQSPRLLIYKVSNRFSGVPDRFSGSGSGTDFTLKISRVEAEDVGVYFCSQNTHVPPTFGSGTKLEIKR | 2.35 nM
6 | XENP 23072 H1_L1.9 (antibody, human IgG1, kappa, V domains shown, VH WT, VL mutation (Kabat) N30Y; also called [GPC3]H1_L1.9; VL N30Y; copies: 2 + 2) VH: QVQLVQSGAEVKKPGASVKVSCKASGYTFTDYEMHWVRQAPGQGLEWMGALDPKTGDTAYSQKFQGRVTMTADKSISTAYMELSRLRSDDTAVYYCTRFYSYTYWGQGTLVTVSS VL: DVVMTQSPLSLPVTLGQPASISCRSSQSLVHSNGYTYLHWYQQRPGQSPRLLIYKVSNRFSGVPDRFSGSGSGTDFTLKISRVEAEDVGVYFCSQNTHVPPTFGSGTKLEIKR | 1.37 nM
7 | XENP 23073 H1_L1.10 (antibody, human IgG1, kappa, V domains shown, VH WT, VL mutation (Kabat) N30H; also called [GPC3]H1_L1.10; VL N30H; copies: 2 + 2) VH: QVQLVQSGAEVKKPGASVKVSCKASGYTFTDYEMHWVRQAPGQGLEWMGALDPKTGDTAYSQKFQGRVTMTADKSISTAYMELSRLRSDDTAVYYCTRFYSYTYWGQGTLVTVSS VL: DVVMTQSPLSLPVTLGQPASISCRSSQSLVHSNGHTYLHWYQQRPGQSPRLLIYKVSNRFSGVPDRFSGSGSGTDFTLKISRVEAEDVGVYFCSQNTHVPPTFGSGTKLEIKR | 3.38 nM
8 | GPC3-A variable light variant L1.6 (G29T) with H1 (antibody, V domains shown, pairing with H1 follows from the library being made on humanized GPC3-A and from pair l) of claim 53; also called [GPC3]H1_L1.6) VH: QVQLVQSGAEVKKPGASVKVSCKASGYTFTDYEMHWVRQAPGQGLEWMGALDPKTGDTAYSQKFQGRVTMTADKSISTAYMELSRLRSDDTAVYYCTRFYSYTYWGQGTLVTVSS VL: DVVMTQSPLSLPVTLGQPASISCRSSQSLVHSNTNTYLHWYQQRPGQSPRLLIYKVSNRFSGVPDRFSGSGSGTDFTLKISRVEAEDVGVYFCSQNTHVPPTFGSGTKLEIKR | 2.85 nM
